# According to US20070059799A1:
# Molecular target: HLA-A*3301 (human)
# Experiment: competition with 125I-labelled standard peptide on purified HLA, gel filtration
# Conditions: not given
row,Binder,binding affinity ratio (IC50 of standard peptide / IC50 of test peptide)
1,RTPSPRRR (modifications not checked) [HBV NUC 188 8-mer peptide ATPSPRRR (SEQ ID NO: 648)],0.0014
2,SALNPADDPSR (modifications not checked) [HBV POL 771 11-mer peptide … (SEQ ID NO: 654)],-0.0023

# Same assay, conditions: remark: other sources report otherwise
row,Binder,binding affinity ratio (IC50 of standard peptide / IC50 of test peptide)
1,TLWKAGILYKR (modifications not checked) [HBV POL 150 11-mer peptide … (SEQ ID NO: 666)],0.11
2,SAICSVVR (modifications not checked) [HBV POL 520 8-mer peptide SAICSVVR (SEQ ID NO: 652)],0.0081
3,TAELLAACFAR (modifications not checked) [HBV POL 716 11-mer peptide … (SEQ ID NO: 661)],0.16
4,TSAICSVVR (modifications not checked) [HBV POL 519 9-mer peptide … (SEQ ID NO: 667)],0.02

# Molecular target: HLA-A*0301 (human)
# Experiment: as above
# Conditions: not given
row,Binder,binding affinity ratio (IC50 of standard peptide / IC50 of test peptide)
1,TSAICSVVRR (modifications not checked) [HBV POL 519 10-mer peptide … (SEQ ID NO: 668)],0.0018
2,RTPSPRRR (modifications not checked) [HBV NUC 188 8-mer peptide ATPSPRRR (SEQ ID NO: 648)],-0.0002
3,SALNPADDPSR (modifications not checked) [HBV POL 771 11-mer peptide … (SEQ ID NO: 654)],-0.0004

# Same assay, conditions: remark: other sources report otherwise
row,Binder,binding affinity ratio (IC50 of standard peptide / IC50 of test peptide)
1,SAGPCALR (modifications not checked) [HBV X 65 8-mer peptide SAGPCALR (SEQ ID NO: 651)],-0.0002
2,TLWKAGILYKR (modifications not checked) [HBV POL 150 11-mer peptide … (SEQ ID NO: 666)],0.0082
3,TAELLAACFAR (modifications not checked) [HBV POL 716 11-mer peptide … (SEQ ID NO: 661)],0.0006
4,TSAICSVVR (modifications not checked) [HBV POL 519 9-mer peptide … (SEQ ID NO: 667)],0.0005

# Molecular target: HLA-A*6801 (human)
# Experiment: as above
# Conditions: remark: other sources report otherwise
row,Binder,binding affinity ratio (IC50 of standard peptide / IC50 of test peptide)
1,SAGPCALR (modifications not checked) [HBV X 65 8-mer peptide SAGPCALR (SEQ ID NO: 651)],0.036
2,TLWKAGILYKR (modifications not checked) [HBV POL 150 11-mer peptide … (SEQ ID NO: 666)],0.064
3,SAICSVVR (modifications not checked) [HBV POL 520 8-mer peptide SAICSVVR (SEQ ID NO: 652)],0.069
4,TLPETTVVR (modifications not checked) [HBV NUC 171 9-mer peptide … (SEQ ID NO: 662)],0.018
5,TAELLAACFAR (modifications not checked) [HBV POL 716 11-mer peptide … (SEQ ID NO: 661)],0.059
6,TSAICSVVR (modifications not checked) [HBV POL 519 9-mer peptide … (SEQ ID NO: 667)],0.082

# Molecular target: HLA-A*1101 (human)
# Experiment: as above
# Conditions: not given
row,Binder,binding affinity ratio (IC50 of standard peptide / IC50 of test peptide)
1,RTPSPRRR (modifications not checked) [HBV NUC 188 8-mer peptide ATPSPRRR (SEQ ID NO: 648)],-0.0002
2,SALNPADDPSR (modifications not checked) [HBV POL 771 11-mer peptide … (SEQ ID NO: 654)],-0.0003

# Same assay, conditions: remark: other sources report otherwise
row,Binder,binding affinity ratio (IC50 of standard peptide / IC50 of test peptide)
1,SAGPCALR (modifications not checked) [HBV X 65 8-mer peptide SAGPCALR (SEQ ID NO: 651)],0.002
2,TLWKAGILYKR (modifications not checked) [HBV POL 150 11-mer peptide … (SEQ ID NO: 666)],0.0095
3,SAICSVVR (modifications not checked) [HBV POL 520 8-mer peptide SAICSVVR (SEQ ID NO: 652)],0.0071
4,TAELLAACFAR (modifications not checked) [HBV POL 716 11-mer peptide … (SEQ ID NO: 661)],0.0023

# Molecular target: HLA-A*3101 (human)
# Experiment: as above
# Conditions: not given
row,Binder,binding affinity ratio (IC50 of standard peptide / IC50 of test peptide)
1,RTPSPRRR (modifications not checked) [HBV NUC 188 8-mer peptide ATPSPRRR (SEQ ID NO: 648)],0.0033
2,SALNPADDPSR (modifications not checked) [HBV POL 771 11-mer peptide … (SEQ ID NO: 654)],-0.0012

# Same assay, conditions: remark: other sources report otherwise
row,Binder,binding affinity ratio (IC50 of standard peptide / IC50 of test peptide)
1,SAGPCALR (modifications not checked) [HBV X 65 8-mer peptide SAGPCALR (SEQ ID NO: 651)],0.0029
2,TLWKAGILYKR (modifications not checked) [HBV POL 150 11-mer peptide … (SEQ ID NO: 666)],0.1
3,SAICSVVR (modifications not checked) [HBV POL 520 8-mer peptide SAICSVVR (SEQ ID NO: 652)],0.028
4,TLPETTVVR (modifications not checked) [HBV NUC 171 9-mer peptide … (SEQ ID NO: 662)],0.0009
5,TAELLAACFAR (modifications not checked) [HBV POL 716 11-mer peptide … (SEQ ID NO: 661)],0.0066
6,TSAICSVVR (modifications not checked) [HBV POL 519 9-mer peptide … (SEQ ID NO: 667)],0.06

# Molecular target: HLA-A*3301 (human)
# Experiment: inhibition of 125I-labelled standard peptide binding to purified HLA
# Conditions: not given
row,Binder,binding affinity ratio (IC50 of standard peptide / IC50 of test peptide)
1,PLTVNEKR (modifications not checked) [HBV POL 98 peptide PLTVNEKR],-0.0009
2,PARDVLCLR (modifications not checked) [HBV X 11 peptide …],0.018
3,PLTVNEKRR (modifications not checked) [HBV POL 98 peptide …],0.0027
4,PLSYQHFR (modifications not checked) [HBV POL 2 peptide PLSYQHFR],-0.0009
5,PLEEELPR (modifications not checked) [HBV POL 20 peptide PLEEELPR],-0.0009
6,PVGAESRGR (modifications not checked) [HBV X 20 peptide …],0.0043

# Molecular target: HLA-A*1101 (human)
# Experiment: as above
# Conditions: not given
row,Binder,binding affinity ratio (IC50 of standard peptide / IC50 of test peptide)
1,PLTVNEKR (modifications not checked) [HBV POL 98 peptide PLTVNEKR],-0.0002
2,PLTVNEKRR (modifications not checked) [HBV POL 98 peptide …],0.0005
3,PLEEELPR (modifications not checked) [HBV POL 20 peptide PLEEELPR],-0.0002
4,PLSYQHFRK (modifications not checked) [HBV POL 2 peptide …],0.0031
5,PVGAESRGR (modifications not checked) [HBV X 20 peptide …],0.0005

# Molecular target: HLA-A*3101 (human)
# Experiment: as above
# Conditions: not given
row,Binder,binding affinity ratio (IC50 of standard peptide / IC50 of test peptide)
1,PLTVNEKR (modifications not checked) [HBV POL 98 peptide PLTVNEKR],-0.0009
2,PARDVLCLR (modifications not checked) [HBV X 11 peptide …],0.01
3,PLSYQHFR (modifications not checked) [HBV POL 2 peptide PLSYQHFR],-0.0009
4,PLEEELPR (modifications not checked) [HBV POL 20 peptide PLEEELPR],-0.0009
5,PLSYQHFRK (modifications not checked) [HBV POL 2 peptide …],0.0006

# Molecular target: HLA-B*5401 (human)
# Experiment: competition with 125I-labelled probe peptide for purified HLA, gel filtration
# Conditions: remark: other sources report otherwise
row,Binder,IC50 [nM]
1,LPIHTAELLA (modifications not checked) [HBV POL 723 peptide 16.0181 (…)],30

# Molecular target: HLA-A*0301 (human)
# Experiment: as above
# Conditions: not given
row,Binder,binding affinity ratio (IC50 of standard peptide / IC50 of test peptide)
1,HLNPNKTKR (modifications not checked) [HBV POL 569 peptide …],0.0025
2,LLDTASALYR (modifications not checked) [HBV NUC 30 peptide …],0.005

# Molecular target: HLA-A*3101 (human)
# Experiment: as above
# Conditions: not given
row,Binder,IC50 [nM]
1,"RLVVDFSQFSR (modifications not checked) [peptide 26.0539 (HBV POL 376, …)]",7
2,"GVWIRTPPAYR (modifications not checked) [peptide 26.0535 (HBV X NUC FUS 299, …)]",3

# Same assay, conditions: remark: other sources report otherwise
row,Binder,IC50 [nM]
1,"AFTFSPTYK (modifications not checked) [peptide 20.0130 (HBV pol 655, …)]",3100

# Molecular target: HLA-A*03 (human)
# Experiment: as above
# Conditions: not given
row,Binder,IC50 [nM]
1,"RLVVDFSQFSR (modifications not checked) [peptide 26.0539 (HBV POL 376, …)]",39
2,"HTLWKAGILYK (modifications not checked) [peptide 1147.16 (HBV pol 149, …)]",20
3,"GVWIRTPPAYR (modifications not checked) [peptide 26.0535 (HBV X NUC FUS 299, …)]",58

# Same assay, conditions: remark: other sources report otherwise
row,Binder,IC50 [nM]
1,"AFTFSPTYK (modifications not checked) [peptide 20.0130 (HBV pol 655, …)]",42
2,"SVVRRAFPH (modifications not checked) [peptide 20.0131 (HBV pol 524, …)]",100
3,"VSFGVWIR (modifications not checked) [peptide 26.0023 (HBV X NUC FUS 296, VSFGVWIR)]",2750

# Molecular target: HLA-A*0201 (Human)
# Experiment: competition with 125I-labelled standard peptide for purified HLA, gel filtration
# Conditions: not given
row,Binder,binding affinity ratio (IC50 of standard peptide / IC50 of test peptide)
1,GLLGFAAPFT (modifications not checked) [HBV POL 627 peptide …],0.0049
2,GLSPTVWLSVI (modifications not checked) [HBV ENV 348 peptide …],0.0036
3,GVWIRTPPA (modifications not checked) [HBV NUC 123 peptide …],0.003
4,GLSPTVWL (modifications not checked) [HBV ENV 348 peptide GLSPTVWL],0.0036

# Molecular target: HLA-B*5301 (human)
# Experiment: as above
# Conditions: not given
row,Binder,binding affinity ratio (IC50 of standard peptide / IC50 of test peptide)
1,NPLGFFPDHQL (modifications not checked) [HBV ENV 9 peptide […]],0.0028
2,PPAYRPPNAPI (modifications not checked) [HBV NUC 129 peptide …],-0.0003

# Molecular target: HLA-B*0702 (human)
# Experiment: as above
# Conditions: not given
row,Binder,binding affinity ratio (IC50 of standard peptide / IC50 of test peptide)
1,VPNLQSLTNL (modifications not checked) [HBV POL 398 peptide …],0.0008
2,NPLGFFPDHQL (modifications not checked) [HBV ENV 9 peptide […]],0.0012

# Molecular target: HLA-A*0301 (human)
# Experiment: not given
# Conditions: not given
row,Binder,binding affinity ratio (IC50 of standard peptide / IC50 of test peptide)
1,WLQFRNSK (modifications not checked) [WLQFRNSK (HBV POL 314)],-0.0002
2,YSLNFMGY (modifications not checked) [YSLNFMGY (HBV POL 580)],-0.0002
3,YLVSFGVWIR (modifications not checked) [… (HBV NUC 118)],0.0005
4,WIRTPPAY (modifications not checked) [WIRTPPAY (HBV NUC 125)],-0.0002

# Same assay, conditions: remark: other sources report otherwise
row,Binder,binding affinity ratio (IC50 of standard peptide / IC50 of test peptide)
1,WLWGMDIDPYK (modifications not checked) [… (HBV NUC 26)],0.003

# Molecular target: HLA-A*0301 (human)
# Experiment: not given
# Conditions: not given
# Remark: another data set of the same source
row,Binder,binding affinity ratio (IC50 of standard peptide / IC50 of test peptide)
1,TDNSVVLSRK (modifications not checked) [HBV POL 736 …],0.0006

# Same assay, conditions: remark: other sources report otherwise
row,Binder,binding affinity ratio (IC50 of standard peptide / IC50 of test peptide)
1,TLWKAGILYKR (modifications not checked) [HBV POL 150 …],0.0082
2,TAELLAACFAR (modifications not checked) [HBV POL 716 …],0.0006
3,TSAICSVVR (modifications not checked) [HBV POL 519 …],0.0005

# Molecular target: HLA-B*0702 (human)
# Experiment: not given
# Conditions: not given
row,Binder,binding affinity ratio (ratio to standard peptide)
1,IPWTHKVGNF (modifications not checked) [HBV POL 50 peptide …],0.0013
